Measured values reported in the DeepSol protein solubility set.

assay: soluble on expression in E. coli; label from the status in PepcDB or PDB records

Row | Sequence | soluble on expression in E. coli
1 | MIRQSVFLLAAIGATVFAQNDSFDLVDANNDGKLSEKELITFMRKRGRPDGQEYFQRFDLDRNGHLDISEFVPLVYEMSRRPVDMDYEFFKKMDLNDDGIVDKAEVEKIRKDNNDRIIDGILSIADTNRDGQLTYAEFKNHLSSGAKSLSPAEEQRNQALQLLSFIDANGDNKLDQLELYTFSQKTSTNKVTKSDVQQIFAMLDKNQDGYLTENELLQLAQQFSTIGNVRSTIPKV | not soluble
2 | MSLSKVYLVPTPIGNLGDITLRALEVLKNVDLIAAEDTRQTLKLLNHFEIKKPLISYHKHNEQGKGEEILRRVKEGTSVAIVSDAGTPGISDPGSVVVEKCIEEGIEFEVLPGATAFTTALIYSGLDTTKFMFKGFFPRENKDKRSFIEDIKDRTETIIIYESPYRILDTIDTLKEGLGNRKVAICRELTKLHEEIFRGTLEEAKIHFEENAPKGEFVCVISGKTDKEIEEENTSKWISMSIEEHIIHYIDNEGMKKKDAIKQVAKDRGVAKSEIYKFSLDEGHHHHHH | soluble
3 | MSLKHYDLIIIGTGSGNSIPGPEFDDKSIAIVEKGAFGGTCLNVGCIPTKMYVYAADIAQEIQESARLGIDATVNSVDWPSIVSRVFDKRIDLIAQGGEAYRRGPETPNIDVYDMHASFVDSKTISTGIAGQEQLISGTDIVIATGSRPYIPEAIAESGARYYTNEDIMRLAQQPESLVIVGGGFIALEFAHVFEALGTKVTILNRSDVLLREADADISAKILELSKKRFDVRLSTAVTAVHNKADGGVKISTDTGDDIEADILLVATGRTPNGNQMNLDAAGIEMNGRSIKVDEFGRTSVEGVWALGDVSSPYKLKHVANAEMRAIKHNLANPNDLQKMPHDFVPSAVFTNPQISQVGMTEQEAREAGLDITVKIQNYSDVAYGWAMEDKDGFVKLIADKDTGKLVGAHIIGAQASTLIQQLITVMAFGIDAREAATKQYWIHPALPEVIENALLGLEFEGHHHHHH | soluble
4 | MDKLNKITVPASQKLRQLQKMVHDIKNNEGGIMDKIKKLKVKGPPSVPRRDYALDSPADEEEQWSDDFDSDYENPDEHSDSEMYVMPAEETGDDSYEPPPAEQQTRVVHPALPFTRGEYVDNRSSQRHSPPFSKTLPSKPSWPSAKARLASTLPAPNSLQKPQVPPKPKDLLEDEADYVVPVEDNDENYIHPRESSPPPAEKAPMVNRSTKPNSSSKHMSPPGTVAGRNSGVWDSKSSLPAAPSPLPRAGKKPATPLKTTPVPPLPNASNVCEEKPVPAERHRGSSHRQDTVQSPVFPPTQKPVHQKPVPLPRFPEAGSPAADGPFHSFPFNSTFADQEAELLGKPWYAGACDRKSAEEALHRSNKDGSFLIRKSSGHDSKQPYTLVAFFNKRVYNIPVRFIEATKQYALGKKKNGEEYFGSVVEIVNSHQHNPLVLIDSQNNTKDSTRLKYAVKVS | soluble
5 | MFSSSALSYINGFCFSTAGYSPEFCHAVRFVLIEEGALNQDGTPKPNLGYVNDPKDKGGETKGGISKRAFPNIDIAALTLDGIVALYHRYFWKPAYCQDWPASVALYTFDAAVQHGVTNALLMLQEIAGTKADGKVGPATRNAVNSADKEYLCARYGLRRARFYARIIKKDTSQTRFIEGWHNRLVNLTNAAWELQ | soluble
6 | MAHHHHHHMIRWAAVLRCGAHGVREDRQALARHHLNLLDKRHWELTTPSRALPVVEVLIRSGVLMDRLEKSSTKPLASLTPSMTKKERSLVQKLSHMLHQASPPTACRVSRNAVEEDEAVRAAYSAACATGACTIDVVVDLAFVRHLRFPLSALMLLELVESRCVKVCWTRGKPCLSKELLDSICDLFAEHEQSLDFRATWWLLSLLGGGTQVRDWPITLSAGKRLFRLCVRRIHYLLPDLPLEDLLLAYVQLARIEGYEKPFIVLGEMERLLLATSSDEYTGVSTNVLLRFMTMPFAVRHADLNLRLCAGWSAASRITEFTQEECLAAFAIVAALHEGCVAESAAAVAALRDWEMLHDALFAQVFCVAHEMTAADCFRILDQSELINVSGWGITVPQMLLEKLKKRILSECTHYAMDECRVPETAELLLRVALGLQALMQRYTVLPSSAADEHAVAECILLLERCITVLPPHG | not soluble
7 | MGSDKIHHHHHHMMNSFYNGISGVKSNSFGIDITANNIANVNTTGFKYSDAQFKDIFYTTITTQSTNPAQGGYGSGAASSQVVFEQGSPVASDGEFDVALQGKGFFGVLGADGNAYYTRNGSFRRDANGYLVDSYGNFVLGTMNPAFTGINYSDRVAGLMGDYLNTGTPVNNGFTVNSNNSFSIGTTASQGAIKVPVNMYLPPQVTQNVKWSGSLNTNTTTEVVKVDLDPSKFNITKTEDGKYVVSGSVSKEDVFSAKAGDRIILNFTDDNGVKTSFEATLDENLNFKSNELDLKGLDENSIKLDTAQISTEQQKANKDILESPIYNADGSKSTLRVTLERVLPQEGDNIQYKAIAQIYDSNGNAVGNPTEGNMVFDKNGALLQNNITSIANPNGGTINIDLGSPYDANKPGSGYSGIYIKQGVEKNVVTQQDGVAEGFFEQYNISDDGSIVAQFSNGKNAIVGKLALYNFINEQGLVAMGDNIFAATANSGDASFIMKDGQVVNTAKFKGGFLEQSNVDLSAELSNLIVTQKAFDASSKSITTSDQMIQKAINMKR | not soluble
8 | MSLKSKGIKNLLIDLGGVLINLDRERCIENFKKIGFQNIEEKFCTHQLDGIFLQQEKGLITPAEFRDGIREMMGKMVSDKQIDAAWNSFLVDIPTYKLDLLLKLREKYVVYLLSNTNDIHWKWVCKNAFPYRTFKVEDYFEKTYLSYEMKMAKPEPEIFKAVTEDAGIDPKETFFIDDSEINCKVAQELGISTYTPKAGEDWSHLFRKEGHHHHHH | soluble
9 | GSAEEWYFGKITRRESERLLLNPENPRGTFLVRESETTKGAYCLSVSDFDNAKGLNVKHYKIRKLDSGGFYITSRTQFSSLQQLVAYYSKHADGLCHRLTNVCPTSKEFIVTD | soluble
10 | MGSDKIHHHHHHDQEPPLYVNENDIFTSPTRIEATLNGLYAAIKNTGTKSLMGGKSYLVFDNRGDDVINISNNLVTLFNTYNMNVGITDAENADTWTYAYLAINKVNTFLQSLEGAREVAGENYDRYVQEAKFVRALAYYYLNNLYPTPYSVNPDAKSVPLRLTAEAGTENNNMPRSTVKQIYEHILSDLENISALDTEVNTYTGVTHATQAAANMLKMRVYMAMNEWDKAITAGELVTGYSLPEDVTLIYKAPYFSQESIFSLPMADTNIPNTQQSLAEYYYDGKIMLIDTKSGIMSKPDYSLATDKRIIAFKGEKDLLMKFTDAKTKLQWVPIFRYAETLLDLAECYANKAGGEATAKSLLKQVRGRSVDAATDPLNIDNLSGDALKEAIYNEKRLEFIGEGIRGIDIMRRGEHFIKVGENETINVGPSDEKYTWPIPQVELLLNKDINK | not soluble
11 | MRTVVPFDPRDPKSRLAEFFADAEERRGFAYAMLADVLGAVRDAGGDPVVVATAPVSRPVDAPVTVDDRALSTAVAAAIADGPLPTAVVMADLALATPDAIRRVFAASGDVVLAPGSGGGTNVVLARTADVPVSYHGVSFRDHVTAAERAGLTVTTVDSFRLAADVDDASDLVDVFVHNTRRTREWLIAGGWRLAVDDGTPTVVREPND | not soluble
12 | MGSDKIHHHHHHMKKVLGGLLVATAVVSLAACSGGEKKASSDVSIKDRYELDEKTPAWKLDKKKEPTKIKWYINSDWTALPFGKDVTTAQIKKDLNVDIEFISGDDSKLNAMISSGDMPDIVTLTEKTGQAALKADSWAYSLNDLAKKYDPYLMKVVNQDTFKWYALEDGKTYGYPNYSNTKADYESGNIPVNDNFVIREDVYNALGKPDVSTPENFEKVMQQIKEKYPEMTPMGFTTVGDGAGPFLDKLQDFLGVPLEDKNGKYYDRNLDKEYLEWLKTFNDVYRAGNISDDSFTDDGATFDEKVKQGNYATMLVAGTSGQGGNFTEFMKKSGTRYIAIDGPSSTSGRKPTLNQTGISGWLSNYITKDAKDPAKVTQLFTYLIDEPGQILTKYGVEGVTYAYNDQGKIDYLPEVKKLEQTDNDAYNKKYGISRFLYFNNDRVNKLKVPMESALTQMQEWGKGKLVPHFVIENINPDAGTPEARANEAIETKLNTTVISMIRAKDDKAFDKSLEDYKAFLKSNKWDAIEKIKSEKMAENRDKLK | not soluble
13 | MAHHHHHHMLRIGRTLLAEVTTINSTTASVSGRLIRIRKKSKWIDRRSTRVPHNGKDIWYFGDQPSCALCHIRFRYKQDYEAHKESELHVNRLRWVETMNWWRETGEPAYLKASNEQWEWFEQHVLPTKAQEMGCTLDEARRVYRQAIMTETPTWHRPLQCPTVKQEVQEPRDQRWPASPKW | not soluble
14 | MGSDKIHHHHHHMFPAGEMFFIESIRNVRNQIKDEKLLEDIKAFIAQEAFHSREHKMLNNHLIHSNYPEVVEIEAQTKARLDKLRQLSAVEQVAATVVMEHYTATLARLLLTDSLIKAKTTQESRNLWEWHALEELEHKSVAFDVLNAIGGNSSKNRKVALARVAKLITPIIFKYWIKILKRKDINFTLKQLKDGIYLGFGGINRVGILSKAFVDMLDVRAENFDPLNMQTEQLEAEFREKLFGQAGFLRDYLS | not soluble
15 | MRIFAVFIFMTYWHLLNAFTVTVPKDLYVVEYGSNMTIECKFPVEKQLDLAALIVYWEMEDKNIIQFVHGEEDLKVQHSSYRQRARLLKDQLSLGNAALQITDVKLQDAGVYRCMISYGGADYKRITVKVNAPYNKINQRILVVDPVTSEHELTCQAEGYPKAEVIWTSSDHQVLSGKTTTTNSKREEKLFNVTSTLRINTTTNEIFYCTFRRLDPEENHTAELVIPELPLIEGRSRGSGLNDIFEAQKIEWHHHHHHHH | soluble
16 | MTKLEQIQQWTAQHHASMTYLSNPKTIEYLTGFGSDPIERVLALVVFPDQDPFIFAPALEVEVIKETGWQFPVIGYLDHENPWAMIADQVKQRHVNPEHVAIEKGQLQVARMEALAAQFSAPSFDLDITSFIEHMR | soluble
17 | KYRSVFDIIGPVMIGPSSSHTAGAARIGRVARSLFGREPERIIVSFYGSFAETYKGHGTDVAIIGGLLDFDTFDERIKTAIQIAEAKGIDIEFRVEDAVPVHPNTAKITISDEKGELELTGISIGGGKIEITELNGFELRLSGNHPAILVVHNDKFGTIAGVANVLAKFSINVGHMEVARKDIGQLALMTIEVDQNIDDHILDELSKLPN | not soluble
18 | MSLTKALTFTILHNDMPTYPMKRDWLFWKEVTERTGVTLKPTSVPASDYDKKRSLLIGAGDAPLLIPKTYPGQETAFVSSGAILPVSEYVRLMPNFRAKVEKWGLEGDLDSIRQADGNYYVLPGLHEKVKSGYSLSFRTDVLKKHGLDLPTTWDQVYDVLKALKAAYPDVYPFSDRWGQPTPGGALLNYLGPAFGTKAGWSYANTAWDTKARKYVFTGATDEYRQMLEYLRKLVAEKLMDPESFTQSDDDAVRKLLSGKSFVISANPQELVQNYRYNLGKQVKGATIEMIPVPIGPTGEVIVGSRLENGLMVAGRAAEGDSFVAMMQFVDWLWYSDGGQEFAKYGVEGVTYTSSGAGRYKVADGISYMGSDPSAPKDLQKDYGFTNGEFAYGGSWALVSSSFSPDEKAFQDAMAGRKLLPVDPAHPLKADEQEQATLWDTPLKDHVTQNTLKFALGKRPMSEWDAYLAELKAKNMQRYIDLHNTAYERFKKEHEGHHHHHH | not soluble
19 | MEGLQRSTISFRRQGSSGIVFDDRLIAELNKSGNNEQKDESQRDEQPKPMSESSEQVKPIDEKDKLRPIKTGGGAPGGIERSRSNGGGAQRHHRTTGRVSPAVDPPSPRISSCGCCSAFGKNPPGKKVNPRKRPPKRRSR | not soluble
20 | MRKLVIPKYYGRPSIGLALFGCTNRPFYHVCVFPDRALGRRYEGNILEQVGTFDPLPNQKNEKLVALNFGRLKYWIGERNAHISVPVLELLGERRNCLSGLFPIHPKSFIRAKDNRALIADQQLKVAAEAAEAEKVAQEQASTGAAATSHPQ | not soluble
